Reference: FireProtDB (doi:10.1110/ps.051460505)
“And” between values parts separate entries of the source, which are not always exact repeats. Equal values may be shown once.

B1: Gamma-crystallin D, P07320 (parent)
chain: MGKITLYEDRGFQGRHYECSSDHPNLQPYLSRCNSARVDSGCWMLYEQPNYSGLQYFLRRGDYADHQQWMGLSDSVRSCRLIPHSGSHRIRLYEREDYRGQMIEFTEDCSCLQDRFRFNEIHSLNVLEGSWVLYELSNYRGRQYLLMPGDYRRYQDWGATNARVGSLRRVIDFS

Variants of: B1
Settings: Homo sapiens; pH 7; 37 °C; GdnHCl; Fluorescence; Sodium phosphate 10 mM; transition: 3; structure 1HK0; whole UniProt chain shown

M147A
ddG of mutation (higher = less stable): 0 kcal/mol
denaturant m value: 3.1 kcal/mol/M
denaturant midpoint (higher = more stable): 2.8 M
unfolding free energy: 8.9 kcal/mol

Q55A
denaturant m value: 3.8 kcal/mol/M and 3.4 kcal/mol/M
denaturant midpoint (higher = more stable): 2 M and 2.9 M
unfolding free energy: 7.5 kcal/mol and 9.6 kcal/mol

Q143A
denaturant m value: 3.8 kcal/mol/M and 3 kcal/mol/M
denaturant midpoint (higher = more stable): 1.9 M and 3 M
unfolding free energy: 7.2 kcal/mol and 9 kcal/mol

Q55A Q143A
denaturant m value: 3.5 kcal/mol/M and 3.1 kcal/mol/M
denaturant midpoint (higher = more stable): 1.8 M and 3.1 M
unfolding free energy: 6.3 kcal/mol and 9.6 kcal/mol

R80A
ddG of mutation (higher = less stable): 1 kcal/mol and 1.3 kcal/mol
denaturant m value: 3.4 kcal/mol/M and 2.7 kcal/mol/M
denaturant midpoint (higher = more stable): 1.8 M and 2.9 M
unfolding free energy: 6.7 kcal/mol and 7.6 kcal/mol

R80A M147A
denaturant m value: 3.2 kcal/mol/M
denaturant midpoint (higher = more stable): 1.7 M and 2.8 M
unfolding free energy: 5.6 kcal/mol and 8.9 kcal/mol
